Source: US20080293916A1, “Hla-Binding Peptide, and Dna Fragment and Recombinant Vector Coding for Said Hla-Binding Peptide” (NEC CORPORATION, priority 2004, published 2008)
Ends that are not written are not given here.

B1: HLA-A24-binding peptide of SEQ ID NO 1 (WT1 peptide, SEQ NAME 356) (peptide)
peptide: DFKDCERRF
notes: Synthesised by the Fmoc solid-phase method, purity 95% or higher

Each molecule was assayed against T1, HLA-A24 molecule (product of the HLA-A*2402 gene) on C1R-A24 cells (human) (assay: reassociation on acid-stripped C1R-A24 cells with added beta2m, mAb 17A12 staining, flow cytometry). Conditions: not given.
T1 construct: MHC class I molecule on cells; Emptied by acid treatment (pH 3.3, 30 s), then reassociated with added purified beta2m and the test peptide; also called HLA-A*2402 molecule; human HLA-A24 molecule

**Q.** PPPPPHSFI [HLA-A24-binding peptide of SEQ ID NO 7 (WT1 peptide, SEQ NAME 64)] was tested. Which “-log Kd” value did it give?
**A.** 4.4 -log Kd (Kd in molar concentration)

**Q.** For DVRDLNALL [HLA-A24-binding peptide of SEQ ID NO 5 (WT1 peptide, SEQ NAME 4)], which “-log Kd” value is on record?
**A.** 4.45 -log Kd (Kd in molar concentration)

**Q.** SFIKQEPSW [HLA-A24-binding peptide of SEQ ID NO 6 (WT1 peptide, SEQ NAME 70)] was tested. Which “-log Kd” value did it give?
**A.** 8.16 -log Kd (Kd in molar concentration)

**Q.** Which “-log Kd” value does the source give for PPPPPPHSF [HLA-A24-binding peptide of SEQ ID NO 4 (WT1 peptide, SEQ NAME 63)] here?
**A.** 4.4 -log Kd (Kd in molar concentration)

**Q.** For QYRIHTHGV [HLA-A24-binding peptide of SEQ ID NO 30 (WT1 peptide, SEQ NAME 285)], which “-log Kd” value is on record?
**A.** 5.62 -log Kd (Kd in molar concentration)

**Q.** How did the “-log Kd” value turn out when B1 was run?
**A.** 4.4 -log Kd (Kd in molar concentration)

**Q.** NMTKLQLAL (also called NMTKLQLAL) [HLA-A24-binding peptide of SEQ ID NO 10 (WT1 peptide, SEQ NAME 441)] was tested. Which “-log Kd” value did it give?
**A.** 6.38 -log Kd (Kd in molar concentration)

**Q.** Which “-log Kd” value does the source give for ALLPAVPSL [HLA-A24-binding peptide of SEQ ID NO 2 (WT1 peptide, SEQ NAME 10)] here?
**A.** 9.16 -log Kd (Kd in molar concentration)

**Q.** How did the “-log Kd” value turn out when NLYQMTSQL [HLA-A24-binding peptide of SEQ ID NO 29 (WT1 peptide, SEQ NAME 225)] was run?
**A.** 4.38 -log Kd (Kd in molar concentration)

**Q.** ILCGAQYRI (also called ILOGAQYRI) [HLA-A24-binding peptide of SEQ ID NO 14 (WT1 peptide, SEQ NAME 280)] was tested. Which “-log Kd” value did it give?
**A.** 5.9 -log Kd (Kd in molar concentration)

**Q.** How did the “-log Kd” value turn out when YRIHTHGVF [HLA-A24-binding peptide of SEQ ID NO 3 (WT1 peptide, SEQ NAME 286)] was run?
**A.** 4.39 -log Kd (Kd in molar concentration)

These molecules were tested against T2, HLA-A2 molecule (product of the HLA-A*0201 gene) on JY cells (human) (assay: reassociation on acid-stripped JY cells with added beta2m, mAb BB7.2 staining, flow cytometry). Conditions: not given.
T2 construct: MHC class I molecule on cells; Emptied by acid treatment (pH 3.8, 30 s), then reassociated with added purified beta2m and the test peptide; also called HLA-A*0201 molecule; human HLA-A2 molecule

**Q.** How did the “-log Kd” value turn out when NLGATLKGV [HLA-A2-binding peptide of SEQ ID NO 31 (WT1 peptide, SEQ NAME 242)] was run?
**A.** 5.09 -log Kd (Kd in molar concentration)

**Q.** Which “-log Kd” value does the source give for ILCGAQYRI (also called ILOGAQYRI) [HLA-A2-binding peptide of SEQ ID NO 40 (WT1 peptide, SEQ NAME 280)] here?
**A.** 5.12 -log Kd (Kd in molar concentration)

**Q.** With VAAGSSSSV [HLA-A2-binding peptide of SEQ ID NO 43 (WT1 peptide, SEQ NAME 250)] as the molecule, how does the “-log Kd” value read?
**A.** 5 -log Kd (Kd in molar concentration)

**Q.** QQYSVPPPV [HLA-A2-binding peptide of SEQ ID NO 39 (WT1 peptide, SEQ NAME 191)] was tested. Which “-log Kd” value did it give?
**A.** 5.49 -log Kd (Kd in molar concentration)

**Q.** Which “-log Kd” value does the source give for NMTKLQLAL (also called NMTKLQLAL) [HLA-A2-binding peptide of SEQ ID NO 49 (WT1 peptide, SEQ NAME 441)] here?
**A.** 5.43 -log Kd (Kd in molar concentration)

**Q.** Which “-log Kd” value does the source give for ALLPAVPSL [HLA-A2-binding peptide of SEQ ID NO 33 (WT1 peptide, SEQ NAME 10)] here?
**A.** 7.84 -log Kd (Kd in molar concentration)

**Q.** For ALLLRTPYS [HLA-A2-binding peptide of SEQ ID NO 38 (WT1 peptide, SEQ NAME 214)], which “-log Kd” value is on record?
**A.** 5.33 -log Kd (Kd in molar concentration)

**Q.** For GVFRGIQDV [HLA-A2-binding peptide of SEQ ID NO 51 (WT1 peptide, SEQ NAME 292)], which “-log Kd” value is on record?
**A.** 5.85 -log Kd (Kd in molar concentration)

**Q.** For NLYQMTSQL [HLA-A2-binding peptide of SEQ ID NO 44 (WT1 peptide, SEQ NAME 225)], which “-log Kd” value is on record?
**A.** 5.83 -log Kd (Kd in molar concentration)

The molecules below were run on human HLA-A type molecule (assay: Binding experiment, result stated in words for HLA-A type molecule). Conditions: not given.
Protocol: <Experiment of Binding Peptide to HLA-A24 Molecule>
The ability of a peptide to bind to an HLA-A24 molecule, which is a product of the HLA-A*2402 gene, was measured using C1R-A24 cells expressing the HLA-A24 molecule (cells prepared by Professor Masafumi Takiguchi, Kumamoto University being supplied with permission by Assistant Professor Masaki Yasukawa, Ehime University).
C1R-A24 cells were first exposed to acidic conditions at a pH of 3.3 for 30 seconds, thus dissociating and removing a light chain β2m, which is associated with HLA class I molecules in common, and an endogenous peptide originally bound to the HLA-A*2402 molecule. After neutralization, purified β2m was added to C1R-A24 cells, the obtained product was added to serial dilutions of a peptide, and incubated on ice for 4 hours. Staining was carried out using fluorescently labeled monoclonal antibody 17A12, which recognizes association (MHC-pep) of the three members, that is, HLA-A*2402 molecule, the peptide, and β2m, which had reassociated during the incubation.
Subsequently, the MHC-pep count per C1R-A24 cell (proportional to the strength of fluorescence of the above-mentioned fluorescent antibody) was quantitatively measured using an FACScan fluorescence-activated cell sorter (Becton Dickinson Biosciences). A binding dissociation constant Kd value between the HLA-A24 molecule and the peptide was calculated from the average strength of fluorescence per cell by a published method (Udaka et al., Immunogenetics, 51, 816-828, 2000).
(§1) <Experiment of Binding Peptide to HLA-A2 Molecule>
(§2) JY cells were first exposed to acidic conditions at a pH of 3.8 for 30 seconds, thus dissociating and removing a light chain β2m and an endogenous peptide, which were noncovalently associated with the HLA-A*0201 molecule. After neutralization, a reassociation experiment was carried out.
(§3) The above-mentioned JY cells and the purified β2m were added to stepped dilutions of peptide for which the binding ability would be measured, and incubation was carried out on ice for 4 hours. HLA-A*0201 molecules that had reassociated up to this point were stained using the associating type specific fluorescently-labeled monoclonal antibody BB7.2.
(§4) Subsequently, the amount of fluorescence per cell was measured using a flow cytometer and a dissociation constant Kd value in molar concentration was calculated by a published method (Udaka et al., Immunogenetics, 51, 816-828, 2000).

**Q.** Which “binding to a human HLA-A type molecule (in words)” value (shortened to “binding”) does the source give for ALLPAVPSL [compound 2] here?
**A.** experimentally confirmed to bind

**Q.** How did the “binding” value turn out when DFKDCERRF [compound 1] was run?
**A.** experimentally confirmed to bind

**Q.** For DVRDLNALL [compound 5], which “binding” value is on record?
**A.** experimentally confirmed to bind

**Q.** For ILCGAQYRI [compound 14], which “binding” value is on record?
**A.** experimentally confirmed to bind

**Q.** Which “binding” value does the source give for NLYQMTSQL [compound 29] here?
**A.** experimentally confirmed to bind

**Q.** Which “binding” value does the source give for NMTKLQLAL [compound 10] here?
**A.** experimentally confirmed to bind

**Q.** PPPPPHSFI [compound 7] was tested. Which “binding” value did it give?
**A.** experimentally confirmed to bind

**Q.** For PPPPPPHSF [compound 4], which “binding” value is on record?
**A.** experimentally confirmed to bind

**Q.** For QYRIHTHGV [compound 30], which “binding” value is on record?
**A.** experimentally confirmed to bind

**Q.** How did the “binding” value turn out when SFIKQEPSW [compound 6] was run?
**A.** experimentally confirmed to bind

**Q.** YRIHTHGVF [compound 3] was tested. Which “binding” value did it give?
**A.** experimentally confirmed to bind

Each molecule was assayed against HLA-A2 molecule, product of the HLA-A*0201 gene (Homo sapiens, UniProt P04439, D140Y/D185E/D98H/E176V/E277Q/G131W/G231S/I119V/I121R/I166T/I218V/L300P/L318F/N151K/N90K/P208A/P217A/Q86G/Q94H/R138H/R169H/T345S) (assay: Experiment of binding peptide to HLA-A2 molecule (JY cells, flow cytometer)). Conditions: not given.
Protocol: as §1, §2, §3, §4

**Q.** For ALLLRTPYS [compound 38], which Kd is on record?
**A.** 4.69 µM

**Q.** With ALLPAVPSL [compound 33] as the molecule, how does the Kd read?
**A.** 0.0143 µM

**Q.** GVFRGIQDV [compound 51] was tested. Which Kd did it give?
**A.** 1.41 µM

**Q.** For ILCGAQYRI [compound 40], which Kd is on record?
**A.** 7.51 µM

**Q.** Which Kd does the source give for NLGATLKGV [compound 31] here?
**A.** 8.17 µM

**Q.** With NLYQMTSQL [compound 44] as the molecule, how does the Kd read?
**A.** 1.49 µM

**Q.** How did the Kd turn out when NMTKLQLAL [compound 49] was run?
**A.** 3.71 µM

**Q.** For QQYSVPPPV [compound 39], which Kd is on record?
**A.** 3.24 µM

Same assay, conditions: −log Kd value (Kd in molar concentration); HLA-A2, JY cells, on ice 4 hours; read-out: BINDING EXPERIMENT DATA (converted)

**Q.** Which Kd does the source give for VAAGSSSSV [compound 43] here?
**A.** 9.95 µM
